We go through 72 sequences from the supplement of paper PMC10567573.

± gives the standard deviation.

The data set can be described thus: protein stability index of a GFP-peptide fusion (GPS, HEK-293T) (PSI 1-6); higher = more stable.
Setting [1] is: treatment: DMSO, c terminus: a fixed tail appended.
Where [2] appears, read: treatment: MLN4924 1 uM, 8 h, c terminus: a fixed tail appended.
[3] abbreviates: treatment: DMSO, c terminus: native.
[4] abbreviates: treatment: MLN4924 1 uM, 8 h, c terminus: native.
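Further: 24-mer peptide tiles fused after GFP, lentivirally expressed, FACS-sorted into six equal bins by GFP/DsRed ratio, decoded by Illumina sequencing, PSI is the read-weighted mean bin number.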

SDGGQKNKPREHIIDCGDIVWSLA [WSB1]: the protein stability index is, setting by setting: under setting [1], 3.07 ± 0.36; under setting [2], 3.23 ± 0.21.

SDGSCKTAGEMVFVYENAKEGARN [BTBD10]: the protein stability index was found to be 4.31 ± 0.18 under setting [1] and 4.48 ± 0.16 under setting [2].

Turning to SDLPTPQAIEPQAIVQQVPAPSRM [SNX8], the protein stability index by setting is: under setting [1], 5.21 ± 0.11; under setting [2], 5.13 ± 0.19.

Take SDRFGRKKVYLTGFALDILFAIAN [SLC22A15]: the protein stability index is, setting by setting: under setting [1], 2.51 ± 0.64; under setting [2], 2.17 ± 0.41.

As for SDSGLSLDSSHSPSSLSSSEGSSS [NFE2L1], the protein stability index was 5.41 ± 0.23 under setting [1] and 5.34 ± 0.17 under setting [2].

SEFHPHHCNLFVYSSSKGSLRLCD [PPP2R2C] came in with a protein stability index under setting [1] of 2.23 ± 0.16 and a protein stability index under setting [2] of 2.27 ± 0.26.

Turning to SEVSCKKRDDYLEWPEYFMAVAFL [DCTD], the protein stability index is, setting by setting: under setting [1], 2.15 ± 0.48; under setting [2], 2.16 ± 0.26.

In the case of SGCDKEALLTGGGSENRNHRLLNM [RNF180], the protein stability index is, setting by setting: under setting [1], 3.58 ± 0.28; under setting [2], 3.86 ± 0.29.

Take SGEELHELFHTIDTHNTNNLDTEE [NECAB1]: the protein stability index runs as follows: under setting [1], 5.12 ± 0.6; under setting [2], 5.08 ± 0.68.

As to SGFLKEMACPYSVLISGDIKDRLK [FAM98B], the protein stability index under setting [1] turned out to be 2.38 ± 0.49 and the protein stability index under setting [2] came to 2.52 ± 0.18.

With SGRLSASWEPLSGPSTPSPVAAQF [FCHO1], the protein stability index reads like this: under setting [1], 3.14 ± 0.25; under setting [2], 3.02 ± 0.23.

As for SHEANKLQDMLDGFIKKFVLCPEC [EIF5], the protein stability index is, setting by setting: under setting [1], 2.49 ± 0.74; under setting [2], 2.65 ± 0.38.

SHTLEERVVHWYFKLLDKNSSGDI [SMOC2] registered a protein stability index under setting [1] of 2.44 ± 0.36 and a protein stability index under setting [2] of 2.03 ± 0.21.

With SIIHQMEKFSSSLHELSSRVEASH [FBF1], the protein stability index is, setting by setting: under setting [1], 2.72 ± 0.21; under setting [2], 2.96 ± 0.2.

Take SITSKPATLTTTSATSKLIHPDED [ZNF207]: the protein stability index by setting is: under setting [1], 5.31 ± 0.26; under setting [2], 5.44 ± 0.28.

Turning to SKKGLSFFAFEHSEEYQQAQHKFL [TCF25], the protein stability index by setting is: under setting [1], 2.85 ± 0.21; under setting [2], 3 ± 0.15.

The sequence SLKAKVSDNMSHLMVDFAQERQML [FSD1] registered a protein stability index under setting [1] of 3.33 ± 0.22 and a protein stability index under setting [2] of 3.31 ± 0.31.

As to SLLQPVTPLGTSRWRKISAALPY [NCF4], the protein stability index under setting [3] is 2.54 ± 0.27 and the protein stability index under setting [4] came to 2.24 ± 0.28.

Take SLPTTAPSNSSSLTLSGIKEDNSL [MYBL2]: the protein stability index is 4.91 ± 0.17 under setting [1] and 5.2 ± 0.13 under setting [2].

As for SLRSYLKRRGPQRSVDVVVSSVFL [PHTF1], the protein stability index runs as follows: under setting [1], 2.48 ± 0.32; under setting [2], 2.09 ± 0.24.

SLTNDWEDHLAVKHFSVEGQLEFR [HSP90AB1] came in with a protein stability index under setting [1] of 3.49 ± 0.23.

Take SMKHTATARFQRNHRLISEILSES [SMARCE1]: the protein stability index is, setting by setting: under setting [1], 2.95 ± 0.12; under setting [2], 3.24 ± 0.5.

Regarding SMPRINHGVLSAEGFLFVFGGQDE [GAN], the protein stability index was 3.05 ± 0.41 under setting [1] and 2.88 ± 0.72 under setting [2].

As to SMQCKVILLDGSEYTCDVEKRSRG [EPB41L3], the protein stability index was determined as 3.04 ± 0.29 under setting [1] and 3.61 ± 0.3 under setting [2].

SNRWLMVKIFLILIVFFIIFVVFL [STX5] returned a protein stability index under setting [1] of 3.38 ± 0.24 and a protein stability index under setting [2] of 3.45 ± 0.32.

In the case of SNTLGFGTEQAPYGMQTQNYPKGG [ETS2], the protein stability index turned out to be 4.29 ± 0.26 under setting [1] and 4.2 ± 0.28 under setting [2].

In turn, SPAQQVPKNPALEAFLAQFSQLED [TOR1AIP2] had a protein stability index under setting [1] of 4.26 ± 0.45 and a protein stability index under setting [2] of 4.38 ± 0.31.

In the case of SPFTNLLNGSSQPTTRNYPELNNN [CDC14A], the protein stability index is 4.04 ± 0.1 under setting [1] and 4.26 ± 0.16 under setting [2].

On to SPPKSPRTTVHDKSAHQTHSSWTP [DNAJC4], for which the protein stability index turned out to be 4.36 ± 0.15 under setting [1] and 4.41 ± 0.2 under setting [2].

SPRGPAPGEEKFENLEGVPSVCSE [ZNF263]: the protein stability index by setting is: under setting [1], 5.41 ± 0.39; under setting [2], 5.44 ± 0.29.

Regarding SPTGLSPYLRFGCLSCRLFYFKLT [CRY1], the protein stability index reads like this: under setting [1], 1.84 ± 0.27; under setting [2], 2.14 ± 0.43.

In the case of SQEREGLLIVKLEEDCAWSQELPP [ZNF263], the protein stability index is 3.72 ± 0.068 under setting [1] and 3.89 ± 0.18 under setting [2].

Turning to SQESALGNTVPAVEPGTPPLDILA [DNAAF3], the protein stability index came out at 5.17 ± 0.15 under setting [1] and 5.14 ± 0.12 under setting [2].

Regarding SQNSSLVQHERIHTGDKPYKCAEC [ZNF8], the protein stability index reads like this: under setting [1], 4.58 ± 0.29; under setting [2], 4.82 ± 0.28.

In the case of SQVMGSGRGSLSSGGQTSWDSGCL [PLEKHN1], the protein stability index is, setting by setting: under setting [1], 4.02 ± 0.14; under setting [2], 3.98 ± 0.13.

Consider SREFFNRRGELRHITKLKPWSLFD [SRPK2], for which the protein stability index runs as follows: under setting [1], 2.56 ± 0.07; under setting [2], 2.9 ± 0.32.

As to SRETQRTPMNHQKAVNDETCKASH [FBXO34], the protein stability index is, setting by setting: under setting [1], 5.06 ± 0.09; under setting [2], 5.17 ± 0.19.

Consider SRHVTTRAALTYTSLEITILTSQP [M1AP], for which the protein stability index was 2.63 ± 0.51 under setting [1] and 2.6 ± 0.65 under setting [2].

In the case of SRLVKYPLLLKEILKHTPKEHPDV [NET1], the protein stability index was 2.71 ± 0.18 under setting [1] and 2.92 ± 0.32 under setting [2].

Sequence SRPAVGPPQPGCPAFIIVKLSPLR [ZSWIM9] yielded a protein stability index under setting [1] of 2.59 ± 0.19 and a protein stability index under setting [2] of 2.33 ± 0.15.

Regarding SRQGSAEALRALQEGLWLDRGTRV [PKD2L1], the protein stability index reads like this: under setting [1], 3.6 ± 0.37; under setting [2], 3.28 ± 0.27.

Take SRRIPSTDANLPSGGKGFKLRRQP [RAB22A]: the protein stability index came out at 4.09 ± 0.18 under setting [1] and 4.25 ± 0.23 under setting [2].

In turn, SRRVLLTNVVTGHRQSFGTNSDVL [DCAF4] yielded a protein stability index under setting [1] of 2.87 ± 0.28 and a protein stability index under setting [2] of 3.04 ± 0.26.

Consider SRVILEIDNARLAADDFRLKYENE [KRT15], for which the protein stability index is, setting by setting: under setting [1], 3.62 ± 0.4; under setting [2], 3.7 ± 0.15.

For SSDGSNFGWETKIKAWMDRYEEAN [KMT2E], the protein stability index was 3.79 ± 0.18 under setting [1] and 3.83 ± 0.15 under setting [2].

As for SSHMNIDITDDCICDLARSIDFNK [PPEF2], the protein stability index runs as follows: under setting [1], 3.67 ± 0.35; under setting [2], 3.89 ± 0.19.

SSLRRQFEFSVDSFQIVLDPMLDF [TENT5D]: the protein stability index came to 2.41 ± 0.32 under setting [1] and 2.17 ± 0.25 under setting [2].

SSPSVSGPRRLVSCLSSQSSALSQ [SPACA3]: the protein stability index amounted to 3.4 ± 0.27 under setting [1] and 3.52 ± 0.35 under setting [2].

As for SSRVIAASYDKTVRAWDLETGKLL [WDR88], the protein stability index is, setting by setting: under setting [1], 2.76 ± 0.39; under setting [2], 3.04 ± 0.29.

Consider SSSGYSSAEINQDLNIQLLKDGYR [FAM219A], for which the protein stability index came out at 3.67 ± 0.15 under setting [1] and 3.85 ± 0.22 under setting [2].

On to SSSNEHAAPAAKTRKQAAKKVAPL [ELOA2], for which the protein stability index amounted to 4.85 ± 0.32 under setting [1] and 4.92 ± 0.26 under setting [2].

As to STPFKPLALKTPPRVLTLSERPLD [MFF], the protein stability index amounted to 4.08 ± 0.17 under setting [1] and 4 ± 0.15 under setting [2].

With SVAVPPPPPNRMYPPPPPALPSSA [WASL], the protein stability index under setting [1] was 4.5 ± 0.18 and the protein stability index under setting [2] amounted to 4.53 ± 0.3.

For the sequence SVPIIGGFWETIFGNRIKRVKLIS [PHTF1], the protein stability index by setting is: under setting [1], 2.29 ± 0.23; under setting [2], 1.94 ± 0.22.

As to SVQVDGQARTQKLQGLIPGARYEV [TNXB], the protein stability index turned out to be 2.6 ± 0.62 under setting [1] and 3.28 ± 0.26 under setting [2].

Take SVTRSCLLEEEEESGEEAAEAME [POP5]: the protein stability index was found to be 5.52 ± 0.23 under setting [3] and 5.49 ± 0.12 under setting [4].

On to SWGWDLGRNRLYHDGKNQPSKTYP [SPSB1], for which the protein stability index is, setting by setting: under setting [1], 3.65 ± 0.094; under setting [2], 3.53 ± 0.34.

On to SWIKMTKLEYEEIALDLTPVIEEL [FAN1], for which the protein stability index reads like this: under setting [1], 2.83 ± 0.69; under setting [2], 2.7 ± 0.53.

In the case of SYLMLVTVMMWPLAVYHRLWDRAY [RETREG3], the protein stability index under setting [1] turned out to be 3.62 ± 0.18 and the protein stability index under setting [2] was 2.62 ± 0.6.

Regarding SYYDPGRLICDFPFDGLLEERALL [VPS39], the protein stability index was 2.4 ± 0.34 under setting [1] and 2.68 ± 0.29 under setting [2].

Turning to TAGDRLTEFRKGAQSLPGPCAAAR [IRX6], the protein stability index under setting [1] is 4.01 ± 0.18 and the protein stability index under setting [2] is 4.17 ± 0.58.

In the case of TALVGLRQNLSKSWLDVQVSNTYV [TPD52L3], the protein stability index was determined as 2.39 ± 0.96 under setting [1] and 2.19 ± 0.53 under setting [2].

With TCECLEGFRLAEDGKRCRRKDVCK [MATN2], the protein stability index was determined as 4.24 ± 0.25 under setting [1] and 4.83 ± 0.28 under setting [2].

For the sequence TCSFNPGVIVANMTEWKHQRITKQ [GLT8D2], the protein stability index by setting is: under setting [1], 3.12 ± 0.11; under setting [2], 3.06 ± 0.15.

Regarding TCTDRSGISTGHWSGEVKDKNVQV [FUT8], the protein stability index worked out at 4.51 ± 0.21 under setting [1] and 4.49 ± 0.16 under setting [2].

On to TDATAFWWGEWTKWTACSRSCGGG [ADAMTSL2], for which the protein stability index was determined as 2.24 ± 0.68 under setting [1] and 2.59 ± 0.6 under setting [2].

With TDGLQEVPLCSCRMETPKSREITT [EHMT1], the protein stability index was determined as 3.21 ± 0.25 under setting [1] and 3.07 ± 0.26 under setting [2].

As for TDGRPQDSVAEVAAKARDTGILIF [MATN2], the protein stability index is 2.86 ± 0.23 under setting [1] and 3.12 ± 0.34 under setting [2].

TENRRLESKIREHLEKKGPQVRDW [KRT18] returned a protein stability index under setting [1] of 3.92 ± 0.16 and a protein stability index under setting [2] of 3.95 ± 0.33.

TERGLSRKHIIEGLKASLERLQLE [KCNAB2] returned a protein stability index under setting [1] of 2.5 ± 0.32 and a protein stability index under setting [2] of 2.22 ± 0.19.

As to TESEIESETDFETEPETAPTTEPE [GNAS], the protein stability index was found to be 5.66 ± 0.2 under setting [1] and 5.68 ± 0.27 under setting [2].

With TFLPYTFSLMVTFPDVPLGIFLFC [TMEM175], the protein stability index amounted to 2.49 ± 0.14 under setting [1] and 2.98 ± 0.8 under setting [2].
